One test has as its target GST–Nup60p (S. cerevisiae, UniProt P39705 1-539). As to the kind of experiment: pull-down.
The target in the next test is T1, Kap95p (recombinant) (S. cerevisiae, UniProt Q06142 1-861).
T1 sequence (looked up): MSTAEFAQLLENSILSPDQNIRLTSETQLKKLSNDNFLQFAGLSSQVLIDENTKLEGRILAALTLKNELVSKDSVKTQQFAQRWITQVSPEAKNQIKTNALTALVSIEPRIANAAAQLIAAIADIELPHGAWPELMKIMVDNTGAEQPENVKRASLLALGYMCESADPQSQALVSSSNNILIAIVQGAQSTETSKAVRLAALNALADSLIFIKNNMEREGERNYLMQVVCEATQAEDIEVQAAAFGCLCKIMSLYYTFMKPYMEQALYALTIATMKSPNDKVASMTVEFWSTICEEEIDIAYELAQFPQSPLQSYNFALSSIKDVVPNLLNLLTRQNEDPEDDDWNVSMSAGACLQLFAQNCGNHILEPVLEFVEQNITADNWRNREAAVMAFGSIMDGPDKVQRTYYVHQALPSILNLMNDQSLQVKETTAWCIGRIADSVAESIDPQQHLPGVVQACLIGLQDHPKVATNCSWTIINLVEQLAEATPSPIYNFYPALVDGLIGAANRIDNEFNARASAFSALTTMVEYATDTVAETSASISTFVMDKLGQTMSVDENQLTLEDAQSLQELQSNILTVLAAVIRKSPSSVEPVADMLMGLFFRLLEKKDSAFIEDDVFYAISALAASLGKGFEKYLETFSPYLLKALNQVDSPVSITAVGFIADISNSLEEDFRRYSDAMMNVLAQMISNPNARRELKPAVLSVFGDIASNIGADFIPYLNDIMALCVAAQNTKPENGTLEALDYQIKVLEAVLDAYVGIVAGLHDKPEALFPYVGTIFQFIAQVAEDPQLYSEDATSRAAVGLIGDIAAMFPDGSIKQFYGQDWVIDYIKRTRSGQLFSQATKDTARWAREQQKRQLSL
As to the kind of experiment: pull-down.

The target in test [1] is Nup2p (construct of the data-not-shown experiments not stated) (S. cerevisiae, UniProt P32499 1-720). As to the kind of experiment: radioligand binding.
Nup2p (construct of the data-not-shown experiments not stated), sequence (P32499 whole entry): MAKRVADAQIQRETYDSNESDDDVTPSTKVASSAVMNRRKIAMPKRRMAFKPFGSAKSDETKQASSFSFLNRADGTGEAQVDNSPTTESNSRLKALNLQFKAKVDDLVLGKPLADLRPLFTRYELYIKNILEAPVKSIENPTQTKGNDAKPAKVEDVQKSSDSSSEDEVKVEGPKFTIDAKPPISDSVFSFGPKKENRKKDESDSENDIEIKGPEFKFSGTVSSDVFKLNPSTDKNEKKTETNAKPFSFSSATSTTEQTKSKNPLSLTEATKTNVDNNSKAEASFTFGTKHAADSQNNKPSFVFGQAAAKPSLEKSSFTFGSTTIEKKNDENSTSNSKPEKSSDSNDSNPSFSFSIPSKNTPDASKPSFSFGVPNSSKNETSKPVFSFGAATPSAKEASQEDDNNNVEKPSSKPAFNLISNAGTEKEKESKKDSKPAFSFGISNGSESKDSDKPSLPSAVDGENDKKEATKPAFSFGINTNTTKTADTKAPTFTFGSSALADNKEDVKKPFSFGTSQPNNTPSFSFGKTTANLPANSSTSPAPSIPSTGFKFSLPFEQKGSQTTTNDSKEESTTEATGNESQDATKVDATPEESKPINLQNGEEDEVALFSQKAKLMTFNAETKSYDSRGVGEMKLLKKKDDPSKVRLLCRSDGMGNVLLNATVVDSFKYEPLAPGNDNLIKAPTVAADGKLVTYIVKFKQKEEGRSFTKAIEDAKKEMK
In test [2] the target is T2, Kap95p–Kap60p heterodimers (recombinant) (S. cerevisiae, UniProt Q06142 1-861; Q02821 1-542).
T2 sequence (looked up) 1: T1 sequence (looked up)
T2 sequence (looked up) 2: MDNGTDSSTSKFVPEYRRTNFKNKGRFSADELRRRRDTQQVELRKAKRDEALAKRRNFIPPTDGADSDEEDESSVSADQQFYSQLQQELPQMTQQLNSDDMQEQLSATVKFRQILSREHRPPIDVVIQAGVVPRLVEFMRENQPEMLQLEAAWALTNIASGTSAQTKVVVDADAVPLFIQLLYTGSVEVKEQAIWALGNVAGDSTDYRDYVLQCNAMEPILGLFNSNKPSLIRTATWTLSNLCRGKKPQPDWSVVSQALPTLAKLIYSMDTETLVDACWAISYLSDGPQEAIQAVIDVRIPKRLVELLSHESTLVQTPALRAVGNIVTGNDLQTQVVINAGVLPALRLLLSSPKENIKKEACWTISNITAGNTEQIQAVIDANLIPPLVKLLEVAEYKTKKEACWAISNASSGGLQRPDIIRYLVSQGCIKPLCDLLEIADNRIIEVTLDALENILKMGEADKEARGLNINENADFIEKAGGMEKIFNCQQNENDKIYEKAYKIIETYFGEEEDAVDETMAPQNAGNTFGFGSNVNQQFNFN
Briefly: pull-down.

As a reminder, the Kd is a measure of binding affinity in units of concentration. A low value points to higher affinity.

B1: Prp20p (natural protein)
chain: MVKRTVATNGDASGAHRAKKMSKTHASHIINAQEDYKHMYLSVQPLDIFCWGTGSMCELGLGPLAKNKEVKRPRLNPFLPRDEAKIISFAVGGMHTLALDEESNVWSWGCNDVGALGRDTSNAKEQLKDMDADDSSDDEDGDLNELESTPAKIPRESFPPLAEGHKVVQLAATDNMSCALFSNGEVYAWGTFRCNEGILGFYQDKIKIQKTPWKVPTFSKYNIVQLAPGKDHILFLDEEGMVFAWGNGQQNQLGRKVMERFRLKTLDPRPFGLRHVKYIASGENHCFALTKDNKLVSWGLNQFGQCGVSEDVEDGALVTKPKRLALPDNVVIRSIAAGEHHSLILSQDGDLYSCGRLDMFEVGIPKDNLPEYTYKDVHGKARAVPLPTKLNNVPKFKSVAAGSHHSVAVAQNGIAYSWGFGETYAVGLGPFEDDTEVPTRIKNTATQDHNIILVGCGGQFSVSGGVKLSDEDAEKRADEMDD
On to B1, for which the binding result with GST–Nup60p was “binds”.

B2: GST–Nup60p (aa 188–388) (domain or fragment, S. cerevisiae, UniProt P39705 188-388, looked up)
chain: PTFNPKYDTSNASMNTTLGSIGSRKYSFNYSSLPSPYKTTVYRYSAAKKIPDTYTANTSAQSIASAKSVRSGVSKSAPSKKISNTAAALVSLLDENDSKKNNAASELANPYSSYVSQIRKHKRVSPNAAPRQEISEEETTVKPLFQNVPEQGEEPMKQLNATKISPSAPSKDSFTKYKPARSSSLRSNVVVAETSPEKKDG
Consider B2, for which the binding result in the test with Kap95p (recombinant) is on record as “binds”.

B3: Kap60p (recombinant) (natural protein, S. cerevisiae, UniProt Q02821 1-542, looked up)
chain: T2 sequence (looked up) 2
Turning to B3, in test [1], the Kd was approximately 0.2 nM.

B4: GST–Nup60p (aa 389–539) (domain or fragment, S. cerevisiae, UniProt P39705 389-539, looked up)
chain: GDKPPSSAFNFSFNTSRNVEPTENAYKSENAPSASSKEFNFTNLQAKPLVGKPKTELTKGDSTPVQPDLSVTPQKSSSKGFVFNSVQKKSRSNLSQENDNEGKHISASIDNDFSEEKAEEFDFNVPVVSKQLGNGLVDENKVEAFKSLYTF
B4: in test [2], the binding result is reported as “binds”.

B5: GST–Nup60p (aa 1–187) (domain or fragment, S. cerevisiae, UniProt P39705 1-187, looked up)
chain: MHRKSLRRASATVPSAPYRKQIISNAHNKPSLFSKIKTFFTQKDSARVSPRNNVANKQPRNESFNRRISSMPGGYFHSEISPDSTVNRSVVVSAVGEARNDIENKEEEYDETHETNISNAKLANFFSKKGNEPLSEIEIEGVMSLLQKSSKSMITSEGEQKSAEGNNIDQSLILKESGSTPISISNA
With B5, the binding result with Kap95p (recombinant) is reported as “binds”.

Values taken from PMC2196189 (The Journal of Cell Biology, 2001).
